{"source": "patent US8026218", "about": "(UNIVERSITY OF ARIZONA, dated 2011)", "key": {"[1]": {"molecular_target": "T1, human δ opioid receptor (human, UniProt P41143 1-372)", "T1 sequence (P41143 whole entry, stated change not applied)": "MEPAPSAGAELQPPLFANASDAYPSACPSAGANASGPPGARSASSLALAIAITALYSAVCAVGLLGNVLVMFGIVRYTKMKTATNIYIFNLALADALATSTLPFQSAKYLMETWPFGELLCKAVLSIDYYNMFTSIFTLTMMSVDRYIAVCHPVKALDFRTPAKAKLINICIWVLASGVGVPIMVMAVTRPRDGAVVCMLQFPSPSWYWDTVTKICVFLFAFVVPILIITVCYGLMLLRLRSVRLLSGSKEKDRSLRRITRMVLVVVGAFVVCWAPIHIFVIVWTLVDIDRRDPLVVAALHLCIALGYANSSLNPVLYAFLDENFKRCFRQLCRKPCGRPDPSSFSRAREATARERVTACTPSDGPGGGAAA", "experiment": "cell-based or functional assay"}, "[2]": {"molecular_target": "T2, rat µ opioid receptor (rat, UniProt P33535 1-398)", "T2 sequence (P33535 whole entry)": "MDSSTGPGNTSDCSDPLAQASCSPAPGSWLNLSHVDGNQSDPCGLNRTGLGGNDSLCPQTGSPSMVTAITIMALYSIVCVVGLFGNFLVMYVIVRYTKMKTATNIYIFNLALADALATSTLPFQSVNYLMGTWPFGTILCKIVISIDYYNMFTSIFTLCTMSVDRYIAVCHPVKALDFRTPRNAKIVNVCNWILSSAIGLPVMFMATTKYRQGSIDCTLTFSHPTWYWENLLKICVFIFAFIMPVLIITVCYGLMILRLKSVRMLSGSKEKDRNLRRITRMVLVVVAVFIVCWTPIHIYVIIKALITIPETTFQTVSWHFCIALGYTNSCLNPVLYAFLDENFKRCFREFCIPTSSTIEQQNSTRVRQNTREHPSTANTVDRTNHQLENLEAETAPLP", "experiment": "cell-based or functional assay"}, "[3]": {"molecular_target": "T2, rat µ opioid receptor", "experiment": "competition vs [3H]DAMGO, rMOR cell membranes"}, "[4]": {"molecular_target": "T1, human δ opioid receptor", "experiment": "competition vs [3H]DPDPE, hDOR cell membranes"}, "[5]": {"molecular_target": "T3, human NK1 receptor (human, UniProt P25103 1-407)", "T3 construct": "whole, on cells; membrane preparations of the transfected cells were used; also called hNK1; human neurokinin-1 receptor", "T3 sequence (P25103 whole entry)": "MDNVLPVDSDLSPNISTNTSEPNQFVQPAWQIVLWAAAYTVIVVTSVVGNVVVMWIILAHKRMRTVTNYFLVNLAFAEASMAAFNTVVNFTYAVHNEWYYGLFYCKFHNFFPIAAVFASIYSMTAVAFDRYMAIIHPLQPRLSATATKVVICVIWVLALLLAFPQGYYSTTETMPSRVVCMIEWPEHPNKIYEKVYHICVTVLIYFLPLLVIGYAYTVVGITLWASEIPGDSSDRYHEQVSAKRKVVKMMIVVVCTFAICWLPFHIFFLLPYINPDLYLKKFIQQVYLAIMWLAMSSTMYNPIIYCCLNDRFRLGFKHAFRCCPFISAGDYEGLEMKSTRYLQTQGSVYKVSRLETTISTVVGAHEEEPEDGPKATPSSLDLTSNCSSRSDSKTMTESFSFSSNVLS", "experiment": "competition vs [3H]Substance P, hNK1 CHO cell membranes"}, "[6]": {"molecular_target": "T4, rat NK1 receptor (rat, UniProt P14600 1-407)", "T4 construct": "whole, on cells; membrane preparations of the transfected cells were used; also called rNK1; rNK-1", "T4 sequence (P14600 whole entry)": "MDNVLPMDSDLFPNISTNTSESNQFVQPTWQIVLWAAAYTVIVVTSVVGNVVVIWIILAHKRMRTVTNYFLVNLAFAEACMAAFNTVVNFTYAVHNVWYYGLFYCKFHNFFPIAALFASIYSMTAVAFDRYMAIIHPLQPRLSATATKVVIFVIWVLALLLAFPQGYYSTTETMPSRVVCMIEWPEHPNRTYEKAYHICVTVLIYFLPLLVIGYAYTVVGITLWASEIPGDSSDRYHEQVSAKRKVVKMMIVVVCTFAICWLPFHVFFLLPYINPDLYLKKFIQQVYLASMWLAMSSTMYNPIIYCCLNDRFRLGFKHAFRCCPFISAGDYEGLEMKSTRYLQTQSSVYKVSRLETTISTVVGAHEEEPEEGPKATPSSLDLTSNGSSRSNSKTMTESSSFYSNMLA", "experiment": "competition vs [3H]Substance P, rNK1 CHO cell membranes"}}, "note": "Square brackets hold non-standard residues; d marks the D form. Ends that are not written are not given here. * marks the point of attachment. OBzl(3,5-(CF3)2) = FC(F)(F)c1cc(CO*)cc(C(F)(F)F)c1", "data": [{"binder": "Y[dA]GW-{OBzl(3,5-(CF3)2)} (also called NP44)", "note": "[Tyr-D-Ala-Gly-Trp-O-3′,5′(CF3)2-Bzl]", "values": [{"measurement": "GTP EC50", "setting": "[1]", "result": 280, "unit": "nM"}, {"measurement": "GTP EC50", "setting": "[2]", "result": 22.9, "unit": "nM"}, {"measurement": "Ki", "setting": "[3]", "result": 48.5, "unit": "nM"}, {"measurement": "Ki", "setting": "[4]", "result": 306, "unit": "nM"}, {"measurement": "Ki", "setting": "[5]", "result": 0.03, "unit": "nM"}, {"measurement": "Ki", "setting": "[6]", "result": 3.4, "unit": "nM"}]}]}
